Test: soluble on expression in E. coli; label from the status in PepcDB or PDB records

| Sequence | soluble on expression in E. coli |
| --- | --- |
| MARMLTAADVEAAGGKLILAAGDRLTPLARDRARELGIVVEAAGLSSGVSTPSASPTSTSAPVVKSPLAAPAPAPVPAARPATPVAPPAATGSRPLALPPSGALYRRNALGPSAQSSRAVDGRPKAGVVGAGHVGAMTALRLAESDLFSEVALVDVVPGLAAGLALDMWHGAGLYGFSTRLSGSDDLVALAGAEYIVITAGKPRQPGMSRTDLTVVNAEIMTSVCRGIRTHAPNSTLVIVSNPLEEMTHLAAQQTGFPEERVLGMAGVLDSARFCALVGLTGKARPQEVRAVALGSHGPEMVIPLSQAFVGDRPIESMFDAETLKALVERARESGGEVVKLLQKGSAYFSPAESAVTMVRAMVRDSGEVIAACVRSRGAYGAVDTRVGLPVRLHRRGLKEIVPLTLRPAEQQALQDAAARIAARIAELPAPC | not soluble |
| MAAMPKPAAFWNDRFANEEYVYGEAPNRFVASAARTWLPEAGEVLLLGAGEGRNAVHLAREGHTVTAVDYAVEGLRKTERLATEAGVEVEAIQADVREWKPARAWDAVVVTFLHLPADERPGLYRLVQRCLRPGGRLVAEWFRPEQRTDGYTSGGPPDPAMMVTADELRGHFAEAGIDHLEAAEPTLDEGMHRGPAATVRLVWCRPSTSLEHHHHHH | soluble |
| MGSDKIHHHHHHMALEVVLWDFDGVIFDSMHLKNEGFRALFQKHGNKNQESLKQFEVYHYQSGGISRNEKIQYFYNEILKTPIAQEEVDALALEFGTIIEQKLFDREHLNSEVMAFIDKHYKNHVFHIASAALHSELQVLCEFLGIIKYFKSVEGSPPNKPKIIANIIQKYAYNPGRMLMIGDSVNDYESAQANEVAFLGYNSKVLKNLVGQNGYQGKYLESFKGFDLQNFIKE | not soluble |
| MSAPLIDKYRKMATFDWKKLKAAVEGEEHVRLKSEVVAKMKSEPVFHRDYRVLSREEQREVVHQRWKKIVEWGLFKDPYSDLENFHALTETLEAYDQGTSARLFLHGNVFGAAVKSMGTDRHKDLIQKTENNEIVGAFCLTEVGHGSNTAEIQTTATFDNGELVFNTPSVSAIKCWAGNLAHSATHVVVYAQLHVEGKNEGFHGFVIQVRCPRTFQTLPGITIGDMGSKPGCWQGVENGWMEFKNHRAPLSALLNKGCDITPDGKYVTSFKSASEKQSVSLGTLSVGRLGIIAKGMMACTFASTIAIRYSVARRQFGPVKGAENEIPVLEYPLQQYRLFPYLSAAICIRIFQKKFVGHFTEYMMRVIMGEKSDELSEFSKEVHALSSGAKPVATWLGVESLGEARKACGGHGYLQMSRLNTLRDDNDPSQTFEGENFMILQQTSNILLGKAQSIGSIETPMSTMSFLNQKPSKFSSWSSNPVNDVLSAYRYLTYHLLQTTSAEAYRLKASGKNSFEVRNEIQIHRAVNLSVAYTEHTMIHWVQQFLKEIEDQSVKPVLQKVLNLFSLFLLERHLATLYITGYASGGKFGEDLREKLRLAVAELKPEAIALVDSIAPDDFILHSALGASDGKAYEHIMEEFRKYTNEQPRWVCDLAQFLQKRSQGSKL | not soluble |
| MVSLEKNDHLMLARQLPLKSVALILAGGRGTRLKDLTNKRAKPAVHFGGKFRIIDFALSNCINSGIRRMGVITQYQSHTLVQHIQRGWSFFNEEMNEFVDLLPAQQRMKGENWYRGTADAVTQNLDIIRRYKAEYVVILAGDHIYKQDYSRMLIDHVEKGARCTVACMPVPIEEASAFGVMAVDENDKIIEFVEKPANPPSMPNDPSKSLASMGIYVFDADYLYELLEEDDRDENSSHDFGKDLIPKITEAGLAYAHPFPLSCVQSDPDAEPYWRDVGTLEAYWKANLDLASVVPELDMYDRNWPIRTYNESLPPAKFVQDRSGSHGMTLNSLVSGGCVISGSVVVQSVLFSRVRVNSFCNIDSAVLLPEVWVGRSCRLRRCVIDRACVIPEGMVIGENAEEDARRFYRSEEGIVLVTREMLRKLGHKQER | not soluble |
| MSLILVYSTFPNEEKALEIGRKLLEKRLIACFNAFEIRSGYWWKGEIVQDKEWAAIFKTTEEKEKELYEELRKLHPYETPAIFTLKVENVLTEYMNWLRESVLEGGSHHHHHH | soluble |
| MGHHHHHHHHHHSSGHIEGRHMLGLGASDFEFGVDPSADPELALALRVSMEEQRQRQEEEARRAAAASAAEAGIATTGTEDSDDALLKMTISQQEFGRTGLPDLSSMTEEEQIAYAMQMSLQGAEFGQAESA | soluble |
| MGSDKIHHHHHHMSQSKPLFPLNAWYAVAWDHEVKHALTPRKLCNLDVVLYRTTAGAVVALEDACWHRLVPLSMGKLRGDDVVCGYHGLVYNAQGRCVHMPSQETINPSACVRGFPVAEKHRYVWVWPGDPAQADVALIPDLHWSHDPAWAGDGRTIHAKCDYRLVLDNLMDLTHETFVHGSSIGQDEVAEAPFEVVHGDRTVTVSRWMHNIDPPPFWAGQIARHLNYHGKVDRWQIIHFEAPGTIAIDVGVAITGTGAPQGDRSQGVNGFVLNTITPETDTTCHYFWAFMRNYALHDQSLTTLTREGVTGVFGEDEAVLEAQQRAIEAHPDHAFYNLNVDAGGMWARRVIDRLIAREQRAGDLSLRMVG | not soluble |
| MSTNFEKHFQENVDECTLEQLRDILVNKSGKTVLANRFRALFNLKTVAEEFATKPEEAKKAIEYIAESFVNDKSELLKHEVAYVLGQTKNLDAAPTLRHVMLDQNQEPMVRHEAAEALGALGDKDSLDDLNKAAKEDPHVAVRETCELAINRINWTHGGAKDKENLQQSLYSSIDPAPPLPLEKDATIPELQALLNDPKQPLFQRYRAMFRLRDIGTDEAILALATGFSAESSLFKHEIAYVFGQIGSPAAVPSLIEVLGRKEEAPMVRHEAAEALGAIASPEVVDVLKSYLNDEVDVVRESCIVALDMYDYENSNELEYAPTAN | soluble |
| MSLLIDFIDETEEVKEEYMSLIREVLEKAAQMENIEDGAEVSVTFVDNERIREINRDYRDKDQPTDVISFAMEEMGEGEMEIVGAEMPRMLGDLIISIPRAKEQAEEYGHSFDRELGFLALHGFLHLLGYDHMTEEDEKEMFGRQKEILEAFGLGR | not soluble |
| MSLIIPEKFQHIHRVMNTNIDGNRKVPYALTAIKGVGRRFAFVCCRKADVDVNKRAGELTEEDFDKIVTIMQNPSQYKIPNWFLNRQKDIKDGKTGQLLSTAVDNKLREDLERMKKIRLHRGLRHYWGLRVRGQHTKTTGRKGRTVGVSKKKGG | not soluble |
| MKIVIAPDSFKESLTAQQVAEAIKRGFQQSIADVECLLCPVGDGGEGTVDAIRHSLDLEEKCLQVTGSFGQKEVMRYFQKEQLALFEVADLVGLGKIPLEKRNPLQIQTRGIGELIRHLISQEIKEIYIGVGGTASNDGGIGIAAGLGYQFYDEDGNALPACGQSLLNLASVSTENRYKIPEDVHIRILADVVSPLCGHQGATYTFGKQKGLDSTMFEVVDQAIQDFYEKVSPATLKLKGAGAGGGIAGGLCAFAQASIVSGIDTCLDLIDFDKKVSDVDLVIVGEGRLDRQSLAGKAPIGVAKRTPVGVPVVAICGSLVEDLPSLPFENIQAAFSILEKSEPLEDSLKNASLYLEHTASNIGHLLNMPKI | soluble |
| MGSDKIHHHHHHMPEFNYQKAFPLKKDPTPYKLISTDYVSTIEVDGRKILKIDPKALELVAEKALADVSFYLRSSHLEKLAKIIKDPEATDNDRFVAYTLLQNASTAGEGKLPSCQDTGTAIVMGKKGENVWTGANDEEALSKGIYNTYQEKNLRYSQVVPITMFEEKNSGTNLPAQIDIYAEQGNEYKFLFMAKGGGSANKTYLYQQTKALLNENSLAEFVKNKIKDLGTSACPPYHLALVIGGTSAEANLKAVKLASAGYYDELPTEGNMGGQAFRDLEWEEKVQLICQESLIGAQFGGKYFTHDVKVIRLPRHAASCPVGIGVSCSADRNIKAKITEEGIFIEALETNPEKFLPAQAPHLEKAVEVDLNQPMADVLKLLSQYPIKTRLKLKGTLIVARDIAHAKIKELLDAGKPMPEYFKNHPVYYAGPAKTPEGMPSGSFGPTTAGRMDSYVNLFQSQGGSMIMLAKGNRSKAVTDACKEFGGFYLGSIGGPAAILAKENIKSVEVVDFEELGMEAVRKIEVVDFPAFIICDDKGNDFFANL | not soluble |
| MNDDTRARGGREGGLRAARDRLQPALLDRLTDDERARCTEPPDAQAIGGERLRAAVLRDLAWLLNTRNGEDGFVDWAAFAHAQASVLNYGMRPLVGKPMSGVERMSVEASIRDAIVRFEPRIAPDSVEVRSVLDAPGGAAGERRHNVLMFEIKGTLWSVPHPVEFVLRSALDLETGAMALQPAAGG | not soluble |
| MGSDKIHHHHHHMKMDFKIRIAQQSDSAELRDLYKNTVLVVNRRDYSQDEVEDWASCGDDLSNIEEMIKTHYFIVAVNQLSQIVGFSSITPQGYLHSMFIHADFQGKGIATMLLEEIERYAITKGIIQITSEVSLTARPFFEKQKYVVKKEQKRQANKLNLTNFWMAKTLSVIKPYHGRIPACGVFCGGCPSYTRDEKICQGAEENKTRCEKCRTFYLCCVEKGITHCYQCHLFPCTKFKGFTKRWLKYGQDFIENQKFLKQVGEMEFLRFYNEKVTD | not soluble |
| MMIENLLIELLTEELPPKSLDKLGNAFAAVIADSLKSQNLTTPDTILTAFASPRRLAVHLTAIPAQAPDQVVALKLMPITVGLDAQGQPTPALHKKLAALGMENVDASALKRVQESKAEMLFLEQNVTGILLAAGLQKAMEDAIRQLPVSKVMTYQLDDGWENVHFVRPVHGLIALHGQKIIPVSAFGLTAGNTTRGHRFEVKQTELIIDHADRYASLLETEGAVIPGFDRRRSWIREGLEAAASAVQLRCISDEVLLDEVTALVEYPNILMGAFPTDFLEVPQECLISTMKINQKYFPLLDTDGKLTNQFLIVANITPADPGQIISGNERVIRSRLADAKFFFDHDRKRTLASRLPDLDKVIYHHQLGSQGERTRYVQTLARIIGRLLGDDNLAGQADQAAMLAKADLLTDMVGEFPELQGIMGRYYARFEGMDETIAFAIEDHYKPRFAGDVLPRSMAGICVALADKLETLISLFSIGQLPTGDKDPYALRRHALGVIRILIEKNLPIGLDVLISRAADVLQDEMIGKQDSGPGHARPVTPQLVGQLQDFFYDRLAASLRDQGYTAQEVEAVLNLRPSL | not soluble |
| PTDILEHVLLPVATEDDALATVTALEPYEPEQVTALHVVEKGEGVPDKTPVAQSEEVAAESYAAVRTVFPDADDHTAYSRNVVEAIFHAADEVGASAIAYRSRGGGRLMQFLSGDLSLKLVTNAAIPVIALPRADS | not soluble |
| MGSDKIHHHHHHMQLHLTDDRFNTDPYWTERIKSTFACPPKEVVSMFDQNGYDLTKLEQLYAVANGAETTKHRNSSHITLRQDWFTADDTEYGPHINHAYMFERKGYSGDALAQLEAWSYYRPHFHKLIAMRPKWGLDFSIDYCDREGNVFELLHWEYDGFDHNEVADKKEKMDEFLVNQDWDERARTMLERKNEWHKLGFFEQSEWKTEFFGIEKERFKMVLWK | not soluble |
| MAGFSVNSPKARKSDQELVAGVLEDKKQFAAIVQRYEEPLFRYIVRQGARDRELARDILQEVFIKVYLHLNDYDASLPFSSWIYRIAHNETITHFRKEKNRPLVLDKGDDDEFFGKIVDDLELSRADGQYDVSDIQTVLERLEPRYRDILVLKFFEDKSYEEISDILQMPQGTVATLINRAKKKVKASLEKN | not soluble |
| SIKDVHRCFVIACIPGKKPYTLALSDFISATAACFKSGIPLKTLKESLENMKETYFRPLKVEEFELLRTWLTLVYKTLKEVLFPLTENKRGICDTDDSIYDEFVKSIVTAIREGYSMEKIRLEQVVTNTKTQPRTEFESALLSQSTRIVVQTVQIAKEFSSEQ | soluble |
